Source: patent publication CN116930475A

Key:
[1] = biological target: 1444-CAR (CD8信号肽-(anti-MSLN)-CD8 hinge-CD28 TM-CD28IC-CD3z), expressed on the T cells of patient S0105's MSLN_CAR-T product, batch BZDS202012001; experiment: flow cytometry, PE-mesothelin staining of S0105 CAR-T product, no serum
[2] = biological target: 2339-CAR (CD8信号肽-2339(anti-MSLN)-CD8hinge-CD28TM-CD28IC-CD3z), expressed on T cells of MSLN_CAR-T products (batch BZDS202101001 for patient S0106; same sequence for S0304); experiment: flow cytometry, PE-mesothelin staining of S0106 CAR-T product, no serum
[3] = biological target: 2339-CAR (CD8信号肽-2339(anti-MSLN)-CD8hinge-CD28TM-CD28IC-CD3z), expressed on T cells of MSLN_CAR-T products (batch BZDS202101001 for patient S0106; same sequence for S0304); experiment: flow cytometry, PE-mesothelin staining of CAR-T product (table for S0304), no serum

Chain of 2339-CAR (CD8信号肽-2339(anti-MSLN)-CD8hinge-CD28TM-CD28IC-CD3z), expressed on T cells of MSLN_CAR-T products (batch BZDS202101001 for patient S0106; same sequence for S0304) (chain, as listed by the source limits assumed): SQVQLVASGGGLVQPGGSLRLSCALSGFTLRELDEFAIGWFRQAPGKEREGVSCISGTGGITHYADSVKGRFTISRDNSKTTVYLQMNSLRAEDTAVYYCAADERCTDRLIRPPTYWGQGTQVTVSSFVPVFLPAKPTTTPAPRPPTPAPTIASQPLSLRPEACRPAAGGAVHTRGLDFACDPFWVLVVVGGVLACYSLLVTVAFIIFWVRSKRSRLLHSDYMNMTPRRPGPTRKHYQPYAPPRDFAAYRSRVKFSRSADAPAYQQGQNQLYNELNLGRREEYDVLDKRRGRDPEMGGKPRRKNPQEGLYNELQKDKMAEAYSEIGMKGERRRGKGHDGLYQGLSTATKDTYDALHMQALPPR
Chain of 1444-CAR (CD8信号肽-(anti-MSLN)-CD8 hinge-CD28 TM-CD28IC-CD3z), expressed on the T cells of patient S0105's MSLN_CAR-T product, batch BZDS202012001 (chain, as listed by the source): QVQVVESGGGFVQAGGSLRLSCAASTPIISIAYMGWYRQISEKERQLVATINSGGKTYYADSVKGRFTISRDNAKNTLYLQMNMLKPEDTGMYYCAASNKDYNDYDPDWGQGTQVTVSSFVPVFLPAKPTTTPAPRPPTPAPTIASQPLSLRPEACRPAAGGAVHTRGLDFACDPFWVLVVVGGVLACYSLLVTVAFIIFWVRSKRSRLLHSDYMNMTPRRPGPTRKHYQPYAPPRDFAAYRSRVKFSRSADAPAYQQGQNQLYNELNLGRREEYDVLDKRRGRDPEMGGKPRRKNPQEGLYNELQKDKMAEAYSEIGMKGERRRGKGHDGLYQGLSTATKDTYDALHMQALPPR

阳性率 (percent of T cells stained by labelled mesothelin) [1]: 32.7% | 阳性率 (percent of T cells stained by labelled mesothelin) [2]: 96.8% | 阳性率 (percent of T cells stained by labelled mesothelin) [3]: 96.8%
Substance: PE荧光标记的间皮素 (PE-labelled mesothelin, MSLN) (from UniProt Q13421 296-580) (ligand)
